For 139 substances, amyloid nucleation score results are on record in the supplement of paper PMC12042874.

± gives the uncertainty stated by the source.

This data set is described as follows: amyloid nucleation score (Sup35N fusion, yeast selection) (log enrichment); library NNK1; higher = more nucleation; inactive = no reads after selection. An outline of the steps:
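Nucleation score is defined as the DiMSum log enrichment of output over input reads, with centring on the mode score of non-aggregating sequences. A minimum of 100 input reads was required for each sequence. Reads came from Illumina sequencing of plasmid inserts from psi-negative yeast expressing Sup35N fused to peptides of 20 random codons, induced with 100 μM copper sulfate for 24 hours and grown 7 days at 30°C on medium lacking adenine and uracil.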

DFAYMSVLWIVVMLRGFLVK registered an amyloid nucleation score of 0.639 ± 0.45.
VKLLYVIISYVRVCCRMDQI yielded an amyloid nucleation score of -0.501 ± 0.54.
The figure for TVTYLLCYYDSALYRCATGL is 5.553 ± 0.052.
Next, AGIQIGWVIHSLCSSELRLS: -0.875 ± 0.69; GGVFMMSSDSTQIIRYVKSR: 0.752 ± 0.56; HAVQLRYLKKKWGWYALCKR: 0.712 ± 0.72.
Next, CVKERELIFFWYVVRSEYDL: -0.485 ± 0.47; THCLDCVPMNRVDNRCETFS: 0.028 ± 0.36; MMGGKDCQFYCSIPLFRVMM: 2.2 ± 0.16.
VRMKPCSLLNLGTYPAQNVM showed an amyloid nucleation score of -0.888 ± 1.9.
The figure for FSSLWDGLLY is 1.16 ± 0.69; for CGKESRVRVKYCVFGIKKWQ it is -0.518 ± 0.53.
Next, IRLKYSGHAILFHETKNKHA: 0.511 ± 0.42; MKQALMGVVMIHWGGRSRV: 0.687 ± 0.54.
THYNAGSCKMLNQAPFHRIS: the amyloid nucleation score is -0.352 ± 0.33.
The figure for CRCYNWFRWSLMS is -0.07 ± 0.26; for SVIVLFTIRRSWRPHSFRES it is 0.94 ± 0.32; for ETTRNKAMNTFMLPFSQSCK it is 0.39 ± 0.56.
The entry for FSSIVSGTLAI is “inactive”.
Substance TDIFSNISYQSGQPATIDYH displayed an amyloid nucleation score of 0.176 ± 0.69.
LFPRVMN yielded an amyloid nucleation score of 0.338 ± 0.58.
Next, LVGTTRLMRFWSRVMT: -0.171 ± 0.41.
The figure for ISQVIGSRILPRPTEQVA is -1.96 ± 1.3; for MKFRINVDLLLNLDNPGIKL it is 0.165 ± 0.45; for RCMSDFRPVWVYVS it is -0.222 ± 0.86.
Next, TWYLMMENVS: 4.69 ± 0.056; DYRIEVSLSVVYCFGLNMRN: 2.38 ± 0.082.
Regarding YLGTFN, the amyloid nucleation score result was “inactive”.
The figure for NTAFSERTWLVRFKMVPRWK is 0.647 ± 0.83; for WDETY it is 4.62 ± 0.07.
In turn, RKFRGLVKLL returned an amyloid nucleation score of 1.28 ± 0.85.
The figure for KQTLLYHSSGSCCWELVSWW is 4.39 ± 0.097.
YSMHKLSVFRRTYSVTISRT came in with an amyloid nucleation score of 0.591 ± 0.55.
Next, FRFSHRLFLWPKYFSIFKNS: 0.37 ± 0.35.
The figure for VDLIPLEGVRGAWLQASQRG is 0.664 ± 0.49; for FIAIDLS it is 1.31 ± 0.45; for AFDQGGIYTVPSGKNFPCTL it is -0.186 ± 0.4.
Substance HYLISSCWIIRSGWADGTGR returned an amyloid nucleation score of 1.01 ± 0.15.
The figure for AKGYSYCKLI is -0.804 ± 0.3; for YDEGHS it is -0.778 ± 1.2; for CSHANETW it is 0.593 ± 0.55.
Next, ILLMSNYYAVRQEEFDQLPV: “inactive”; LASFMQRRAYSDGHDMLVRM: “inactive”; PRTLPVLFNLSLKGSSHTYF: 4.52 ± 0.064.
Next, YVDDFPRQSAGFIDT: 2 ± 0.57.
Substance LVSMVWLPM showed an amyloid nucleation score of 0.167 ± 0.84.
For the substance FRNSLSYIVLSCLAMFFNDG, the amyloid nucleation score stood at 0.967 ± 0.32.
The figure for HDICTLWILSAL is 0.602 ± 0.78.
Next, SNGHNAILVA: “inactive”; CLYARLSFASGYCGLAMRCV: 0.477 ± 0.93.
Next, IIVTSKQSTTYTHLVWERSG: -0.629 ± 0.69.
In turn, YSSSRRDCRRPGTMYRPLPQ registered an amyloid nucleation score of -0.547 ± 0.55.
The figure for NDWVY is 1.12 ± 0.53; for QKLVDLTIRWGYRPLGRCWW it is 0.622 ± 0.97; for QRVSIRFSVPRGL it is 0.312 ± 0.31.
Next, YLICWVIPGSNVGLMVGMTA: 0.093 ± 1.4; AKVYSGIPWWNFSTFLRGEV: -0.668 ± 1.4; FFTIQMGYMALGMW: 1.16 ± 0.23.
Next, AASTNSGR: 0.305 ± 0.68; SSGFKSAPFSFLRLFLHISR: -1.47 ± 2.4; LRVPRCMIKRLHYGICPSSG: 0.094 ± 0.91.
The substance FRSGFSLKARSVQMCDRF registered an amyloid nucleation score of 1.26 ± 0.42.
Next, LCNIITGVSSIGAYWSTKIL: 1.22 ± 0.57.
Next, VLWHGLVVRSGNVEIVRSMC: -0.175 ± 0.96; VNHCMMHEYLGGLLSSVIG: 0.773 ± 0.24.
The figure for FSMLIDEELDFSAETSLRHG is 0.637 ± 0.59.
The substance GAQATFEVHCLERTVWVYR returned an amyloid nucleation score of -0.691 ± 1.4.
The figure for LSTKKTQTMRRVW is 0.404 ± 0.44.
Next, SYVSKSYLYKRGSELQAVLQ: -0.157 ± 0.65; RLSGGLADHNIFNFRIT: 0.805 ± 0.76.
Next, IGRMSYWGCRTLNNSPCGKF: -1.22 ± 1.7; RHIFIRGIVYCCVSTFRFPS: -0.218 ± 0.27.
In turn, YVPGTNILLIIGEICQVPTD displayed an amyloid nucleation score of 2.18 ± 0.22.
Next, EFELRASNLPFNVFPIGFSN: 1.07 ± 0.67; VDVMRVVLNLNCSRTSVIYM: 5.938 ± 0.048.
In turn, NGFDTKYSLEGLGYSWPMLV showed an amyloid nucleation score of 0.407 ± 0.41.
The figure for AHSANSKIVSFRMLDDYRPD is 1.1 ± 0.39.
The figure for TSYNIMFQ is -0.584 ± 1.2; for RVSPFISNTFVVNSKETHGV it is 4.56 ± 0.056; for YTVRGRDYNGAM it is -1.3 ± 2.4.
Next, NDTFSYCSTSGDRFGT: 1.4 ± 0.24; NEHQVNEG: 0.478 ± 0.48.
The substance IVEDSLRFIANPYTILNR had an amyloid nucleation score of 0.723 ± 0.55.
As to DNDPMYYADSIEECF, the amyloid nucleation score entry was “inactive”.
Substance ILSERHWVFELYGLCGWRRE gave an amyloid nucleation score of 0.493 ± 0.52.
Next, SCIYLNGSPVDEDGKYVHDF: “inactive”.
Next, VDSVLIWIMFAAMGSKCPG: 1.77 ± 0.23; RAKTWDGRGAKQP: 1.22 ± 0.64.
The figure for VIPVFRGSSFA is -0.055 ± 0.66; for YVLMPWSFLLHGMRNLTAMS it is “inactive”.
Substance QYIVW showed an amyloid nucleation score of 0.142 ± 0.32.
Next, VRNVISNKYCRAGYLTKYLL: -0.16 ± 0.22.
Regarding IRVGGIWRGCCGVDLCYLTI, the amyloid nucleation score is -0.627 ± 0.61.
LVTRGFEVRGDHQVIKYFLA returned an amyloid nucleation score of -0.6 ± 0.49.
The figure for MRTDFERHIVSYVSELCKLP is -0.162 ± 0.73.
The figure for FVYHWRSVKGNLVWRCGSMD is 0.95 ± 0.63; for WSFVYMENVIARYEVSVG it is 0.296 ± 0.25.
Next, SSYFMVYYQRVTSCFMVGFL: -0.865 ± 0.48.
In turn, RVLATKRRLQKRLHESVLLA returned an amyloid nucleation score of 0.34 ± 1.1.
Next, SSGYGECAFVT: -0.055 ± 0.33.
The figure for IVNAKLSWSYPGIIRLCHCE is 0.43 ± 0.28; for FYRQFHHLGEDPLH it is -0.583 ± 0.53.
The figure for CLIESIWKLVVSNGSKYISY is -0.181 ± 0.18; for CSFYHVFRCSVGFDVFFSTD it is -0.259 ± 0.41; for VRSKLPPGSFDSFWGWWEKK it is -0.343 ± 0.45.
Take ERIRTHIRPIGCRRNLMVGW: the amyloid nucleation score was 1.08 ± 0.63.
Next, TFGNLRMDVRAPTRFKDLLK: 1.27 ± 0.47; ILGRYNNAVLGVGSEQWSVG: 0.287 ± 0.46.
Substance YASTSMWVP had an amyloid nucleation score of -0.401 ± 0.35.
The figure for RVGILRMYSMFQFFKSLQWI is -0.372 ± 0.86; for LTMLYMLLCDNSLMRDILPD it is 0.951 ± 0.88; for YSGNSIFLNLRSSCAYCGGD it is 6.35 ± 0.081.
Next, SGGELVVLIYMNMGASGWAP: -0.756 ± 0.56; DMTWNKQHFYGCSISYRSGT: 5.99 ± 0.086.
With CNYTSPPLSVKDRASLCHTN, the amyloid nucleation score is -0.301 ± 0.93.
The figure for RSMYVSRRPIVPPLYIGFWE is 0.166 ± 0.48; for LWVTRRPVGGFMW it is 0.721 ± 0.79; for PVVDKLSDVHVM it is -0.262 ± 0.31.
Next, LFRWVLLFFVRT: “inactive”.
Next, WLAHRNWLC: 0.103 ± 0.7.
Consider RTCAWVGQHATSLWPFNRGQ, for which the amyloid nucleation score turned out to be 0.493 ± 0.77.
Next, SVGFDDGPRSGTLNGFVSRR: -0.262 ± 0.6.
The figure for YPCCKICDYIKS is -0.018 ± 0.23; for WSARHKHNTKCYFVRGQ it is -0.081 ± 0.34.
Consider ISTPKDISSPKSFWNIFFGT, for which the amyloid nucleation score stood at 4.65 ± 0.069.
The figure for YYSYMNCIMITISLLMLVLQ is -0.052 ± 0.21.
With GMFYVLVGENCCFYALVWTL, the amyloid nucleation score was -0.223 ± 0.23.
Next, VSTLA: “inactive”.
Next, ISISLRHECRYKMFEQ: 2.22 ± 0.19; VGITDSNRVLILSGQIHGVM: 0.6 ± 0.46; VLSVGQESTMISESGFNTEN: -0.001 ± 0.55.
Next, QGHCGTYHSGGSVNRLPHGV: 0.209 ± 0.39; VCNIS: 0.985 ± 0.42.
The substance LFSSYSLEE gave an amyloid nucleation score of 1.1 ± 0.77.
Next, VSWDSMYMAMPWVIVHVL: “inactive”.
Take CSLTKQRCYFEQLMSGPPCL: the amyloid nucleation score was -0.329 ± 0.35.
The substance VHNTRYSHVPNKKMRSVIRK had an amyloid nucleation score of 1.44 ± 0.42.
MDCCYYFFLIF came in with an amyloid nucleation score of 4.15 ± 0.052.
The figure for YYFRFCREVIARLGMDMSSK is -0.341 ± 0.29.
